Data published in patent publication US20190292247A1 (DEGENRX B V, published 2019).

What was measured:
[1] = target: T1, Stable Crossbeta oligomers (Perkin Elmer Amyloid Oligomers AlphaLISA High-Specificity Detection Kit (AL334F)) (UniProt P05067 672-713); assay: sandwich ELISA: CBB-VNAR coated at 2 µg/ml as capture, the stable oligomer concentration is varied, detection with 6E10-biotin and streptavidin-HRP; sandwich ELISA; CBB-VNAR coated 2 µg/ml as capture; stable Crossbeta oligomer titrated
T1 construct: also called Aβ-oligomers
Experimental: (§1) The generic amyloid beta binding antibody 6E10-biotin was immobilized on streptavidin Alphascreen®donor beads, while FLAG-tagged CBB-VNAR was immobilized on anti-FLAG Alphascreen®acceptor beads. These beads were incubated with different concentrations of amyloid beta 1-42 derived antigens (oligomers, monomers, fibrils, all prepared as described in example 1). In this format, a specific signal is generated when donor/6E10 and acceptor/CBB-VNAR beads simultaneously bind to different epitopes on the same molecule. […] Plates were then read using a Perkinelmer Enspire® plate reader using the 384 well factory preset measuring protocol. […] Stable Crossbeta oligomers (Perkin Elmer Amyloid Oligomers AlphaLISA High-Specificity Detection Kit (AL334F)) were also detected using an ELISA sandwich immunoassay format where the CBB-VNAR was immobilized to Nunc amino immobilizer plates (2 μg/ml coating, 1 hr rT) to serve as oligomer capture molecule. After incubation of the CBB-VNAR coated wells with different amounts of stable oligomer for 1 hour, wells were washed and bound oligomer was detected using sequential incubation with 6E10-biotin and streptavidin-HRP as described in example 1.

[2] = target: T2, amyloid beta 1-42 oligomer (UniProt P05067 672-713); assay: ELISA on immobilized oligomer (5 µg/ml), anti-FLAG-M2-HRP detection; ng/ml, as measured in the ELISA
T2 construct: domain: amyloid beta 1-42; Soluble oligomeric aggregate; also called Aβ-oligomers; oligomeric amyloid beta 1-42
Experimental: To probe the binding affinities of CBB-VNAR towards different amyloid beta species and aggregation states, ELISA assays were performed. As a comparator antibody, the well-characterized 6E10 antibody was used. The 6E10 antibody recognizes N-terminal amino acid residues 3-8 of amyloid beta (EFRHDS), an epitope that is present and available for antibody binding in amyloid beta 1-42 derived antigens regardless of the physical form or aggregation state (Crisostomo et al., 2015. Data Brief. 2015 Aug. 6; 4:650-8.; Frenzel et al., 2014. PLoS One. 2014 Mar. 3; 9(3):e89490). Amyloid beta aggregates were prepared by incubation of monomeric synthetic amyloid beta 1-42 monomer in either F-12 medium (for oligomers) or 10 mM HCl (for fibrils) essentially as described by Dahlgren et al. (2002. J Biol Chem. 2002 Aug. 30; 277(35):32046-53). Amyloid beta derived antigens in different forms (oligomer, monomer, fibril, all at 5 μg/ml) were immobilized to Nunc Amino Immobilizer plates and blocked with ethanolamine according to the manufacturer's instructions. After washing, plates were probed with different concentrations of either FLAG-tagged CBB-VNAR or biotinylated 6E10 antibody (in parallel and on the same plates) for 1 hour. Bound antibody was then detected using anti-FLAG-M2-HRP (for CBB-VNAR) or with streptavidin-HRP (for 6E10-biotin). […]

[3] = target: T2, amyloid beta 1-42 oligomer; assay: Alphascreen proximity sandwich: 6E10-biotin on streptavidin donor beads, CBB-VNAR on anti-FLAG acceptor beads; the oligomer concentration is varied; Alphascreen bead sandwich with 6E10-biotin; oligomer in solution titrated; apparent EC50
Experimental: as §1

[4] = target: T2, amyloid beta 1-42 oligomer; assay: intrinsic Trp fluorescence titration, 0.5 uM CBB-VNAR in PBS pH 7.2 with 0.5 mM EDTA, excitation 280 nm
Text: The amino acid residue tryptophan (Trp or W) intrinsically fluoresces upon excitation in the range 280-295 nm. The emission intensity (i.e. quantum yield) and emission wavelength are sensitive towards the local environment of the Trp residue. The local environment can change, for example, when the Trp residue is involved in conformational changes or ligand binding. Therefore, Trp emission is widely used to study proteins and their interaction with other proteins or small molecules. […] To evaluate whether the Trp residues of CBB-VNAR are involved in the binding of amyloid beta oligomer antigen, a fluorescence titration study was performed. For this experiment, 0.5 uM CBB-VNAR or 12Y2 control VNAR were titrated with known quantities of amyloid beta oligomer (ABO) in Phosphate Buffered Saline (PBS) buffer, pH 7.2. […] After each ABO addition, the sample was equilibrated until the Trp fluorescence intensity was stable, and Trp emission spectra were recorded between 320 and 450 nm using 280 nm excitation. […] Upon addition of ABO, the emission intensity of CBB-VNAR decreases in a dose-dependent and saturable fashion where the intensity decreases to about 70% of the intensity measured for the native protein (FIGS. 5A and C). […]

[5] = target: T2, amyloid beta 1-42 oligomer; assay: intrinsic Trp fluorescence quenching; the varied concentration is that of the oligomer (ABO), with CBB-VNAR fixed at 0.5 uM
Text: Therefore, Trp emission is widely used to study proteins and their interaction with other proteins or small molecules. The invariable core structure of the VNAR as isolated from wobbegong sharks has two Trp residues (see sequence below, Trp indicated in black) of which one is buried inside the protein whereas the other is exposed to the solvent (see FIG. 5D). The CBB-VNAR has two additional Trp residues in the CDR regions (one in CDR1, one in CDR3). No Trp residues are present in the CDR regions of the 12Y2 control protein. Apart from the CDR sequences, this control 12Y2 protein has an amino acid sequence identical to that of CBB-VNAR. To evaluate whether the Trp residues of CBB-VNAR are involved in the binding of amyloid beta oligomer antigen, a fluorescence titration study was performed. For this experiment, 0.5 uM CBB-VNAR or 12Y2 control VNAR were titrated with known quantities of amyloid beta oligomer (ABO) in Phosphate Buffered Saline (PBS) buffer, pH 7.2. […] After each ABO addition, the sample was equilibrated until the Trp fluorescence intensity was stable, and Trp emission spectra were recorded between 320 and 450 nm using 280 nm excitation. […] Upon addition of ABO, the emission intensity of CBB-VNAR decreases in a dose-dependent and saturable fashion where the intensity decreases to about 70% of the intensity measured for the native protein (FIGS. 5A and C). […]

T2 sequence (P05067 672-713 limits assumed): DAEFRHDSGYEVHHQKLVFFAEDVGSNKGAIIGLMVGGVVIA
T1 sequence (P05067 672-713): as the sequence (P05067 672-713 limits assumed) above

B1: CBB-VNAR (FLAG-tagged) (VNAR)
VNAR: AWVDQTPRTATKETGESLTINCVLRDQNGWSRTGWYRTKLGSTNEQSISIGGRYVETVNKGSKSFSLRISDLRVEDSGTYKCQALLNPRREEFWFSRRYPVVKGAGTALTVKA
notes: Monomeric shark-type VNAR single domain (Mw 15 kDa); not shown: FLAG tag
B1 gave an EC50 [1] of 0.01 µg/mL, an EC50 [2] of 0.004 µg/mL and an EC50 [3] of 0.1 µg/mL. For the same binder, the “Trp emission intensity at saturation with oligomer, relative to the native protein” value [4] was ~70% and the “EC50 (read off the curve)” value [5] was ~8 µg/mL.
